We go through 94 variants from the supplement of paper PMC10567573.

First the molecules themselves.
B1: KLHL12 (parent)
chain: SMTTPRCYVGATVLRGRLYAIAGY
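Further: lentivirally expressed fusions sorted by FACS into six bins by GFP to DsRed ratio, PSI derived from sequencing read proportions per bin multiplied by bin number.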

In this data set the parent is B1. The data set is described as follows: protein stability index of a GFP-peptide fusion (GPS, HEK-293T) (PSI 1-6); higher = more stable. The note with it: c terminus: a fixed tail appended.
Regarding SMTTPRCYVGATVLRGRLYKIAGY, the protein stability index is 3.06.

SMTTPRCYVGATVLRGRLYGIAGY: the protein stability index is 2.11. In the case of SMTTPRCYVGATVLRGRLYDIAGY, the protein stability index came to 1.48. Next, SMTTPRCYVGATVLRGRLYRIAGY: 1.34; SMTTPRCYVGATVLRGRLYHIAGY: 1.18; SMTTPRCYVGATVLRGRLYCIAGY: 2.26.

Take SMTTPRCYVGATVLRGRLYWIAGY: the protein stability index was 3.09. Next, SMTTPRCYVGATVLRGRLYYIAGY: 2.41; SMTTPRCYVGATVLRGRLYIIAGY: 2.3; GMTTPRCYVGATVLRGRLYAIAGY: 2.39. The figure for KMTTPRCYVGATVLRGRLYAIAGY is 1.92; for PMTTPRCYVGATVLRGRLYAIAGY it is 3.62. The figure for DMTTPRCYVGATVLRGRLYAIAGY is 2.24; for NMTTPRCYVGATVLRGRLYAIAGY it is 1.9.

Take IMTTPRCYVGATVLRGRLYAIAGY: the protein stability index turned out to be 2.52. Next, STTTPRCYVGATVLRGRLYAIAGY: 2.22; SITTPRCYVGATVLRGRLYAIAGY: 1.65; SDTTPRCYVGATVLRGRLYAIAGY: 2.48. The figure for SMTTPRCYVGATVLRGRLYAIAGC is 1.82; for SMTTPRCYVGATVLRGRLYAIAGA it is 1.48; for SMTTPRCYVGATVLRGRLYAIAGN it is 1.75.

For SMTTPRCYVGATVLRGRLYAIAGH, the protein stability index was 1.43. The figure for SMTTPRCYVGATVLRGRLYAIAGD is 2.03; for SMTTPRCYVGATVLRGRLYAIAGQ it is 2.45. Next, SMTTPRCYVGATVLRGRLYAIAGS: 1.27; SMTTPRCYVGATVLRYRLYAIAGY: 2.42; SMTTPRCYVGATVLRHRLYAIAGY: 1.98. The figure for SMTTPRCYVGATVLRRRLYAIAGY is 2.39. For the variant SMTTPRCYVGATVLRLRLYAIAGY, the protein stability index worked out at 2.05.

For the variant SMTTPRCYVGATVLRDRLYAIAGY, the protein stability index came to 1.58. The figure for SMTTPRCYVGATVLRPRLYAIAGY is 2.19; for SMTTPRCYVGATVLRFRLYAIAGY it is 2.91; for SMTTPRCYVGATVLRERLYAIAGY it is 1.25. Turning to SMTTPRCYVGATVLRNRLYAIAGY, the protein stability index is 1.98. The figure for SMTTPRCYVGATVLRSRLYAIAGY is 2.46. Turning to SMTTPRCYVGATSLRGRLYAIAGY, the protein stability index turned out to be 1.88. The figure for SMTTPRCYVGATMLRGRLYAIAGY is 1.73.

As to SMTTPRCYVGATRLRGRLYAIAGY, the protein stability index is 1.74. Next, SMTTPRCYVGATILRGRLYAIAGY: 1.84.

Take SMTTPRCYVGATDLRGRLYAIAGY: the protein stability index was 1.28. Next, SMTTPRCYVGATNLRGRLYAIAGY: 1.81; SMTTPRCYVGATGLRGRLYAIAGY: 2.24. The figure for SMTTPRCYVGATKLRGRLYAIAGY is 1.96; for SMTTPRCYVGATVLRGRLYAIALY it is 3.25; for SMTTPRCYVGATVLRGRLYAIAKY it is 1.35.

With SMTTPRCYVGATVLRGRLYAIANY, the protein stability index was found to be 1.78.

With SMTTPRCYVGATVLRGRLYAIADY, the protein stability index was found to be 1.64. As to SMTTPRCYVGATVLRGRLYAIAHY, the protein stability index is 3.9.

As to SMTTPRCYVGATVLRGRLYAIATY, the protein stability index stood at 2.54. The figure for SMTTPRCYVGATVLRGRLYAIASY is 2.08. Next, SMTTPRCYVGATVLRGRLYAIAIY: 1.86; SMTTPRCYVGATVLRGRLYAIARY: 1.97; SMTTPRCYVGATVLRGRLYAIAEY: 2.19.

Consider SMTTPRCYVGATVLRGRLYAIAFY, for which the protein stability index came to 2.6. The figure for SMTTPRCYVGATVLRGRLYAIAPY is 2.39; for SMTTPRCYVGATVLRGRLYAQAGY it is 1.67; for SMTTPRCYVGATVLRGRLYAMAGY it is 1.28. The figure for SMTTPRCYVGATVLRGRLYAHAGY is 1.59; for SMTTPRCYVGATVLRGRLYAWAGY it is 2.43. The figure for SMTTPRCYVGATVLRGRLYAAAGY is 2.65. As for SMTTPRCYVGATVLRGRLYAFAGY, the protein stability index is 2.81. The figure for SMTTPRCYVGATVLRGRLYANAGY is 1.81; for SMTTPRCYVGATVLRGRLYAGAGY it is 1.78; for SMTTPRCYVGATVLKGRLYAIAGY it is 2.57. Consider SMTTPRCYVGATVLEGRLYAIAGY, for which the protein stability index is 2.11.

For SMTTPRCYVGATVLTGRLYAIAGY, the protein stability index stood at 2.62. The figure for SMTTPRCYVGATVLLGRLYAIAGY is 2.21; for SMTTPRCYVGATVLVGRLYAIAGY it is 3.43; for SMTTPRCYVGATVLSGRLYAIAGY it is 1.63. Consider SMTTPRCYVGATVLMGRLYAIAGY, for which the protein stability index came out at 1.59. Next, SMTTPRCYVHATVLRGRLYAIAGY: 1.85. Next, SMTTPRCYVIATVLRGRLYAIAGY: 2.94; SMTTPRCYVAATVLRGRLYAIAGY: 1.29; SMTTPRCYVMATVLRGRLYAIAGY: 2.75. Next, SMTTPRCYVYATVLRGRLYAIAGY: 2.21.

SMTTPRCYVFATVLRGRLYAIAGY: the protein stability index was 1.36.

For SMTTPRCYVKATVLRGRLYAIAGY, the protein stability index was found to be 2.11. The figure for SMTTPRCYVGAGVLRGRLYAIAGY is 1.18; for SMTTPRCYVGAYVLRGRLYAIAGY it is 4.56. Next, SMTTPRCYVGAMVLRGRLYAIAGY: 3.47; SMTTPRCYVGAQVLRGRLYAIAGY: 1.92. The figure for SMTTPRCYVGPTVLRGRLYAIAGY is 2.17; for SMTTPRCYVGTTVLRGRLYAIAGY it is 1.49; for SMTTPRCYVGNTVLRGRLYAIAGY it is 1.5. As to SMTTPRCYVGMTVLRGRLYAIAGY, the protein stability index stood at 2. Next, SMTTPRCYVGFTVLRGRLYAIAGY: 2.01. Take SMTTPRCYVGETVLRGRLYAIAGY: the protein stability index came out at 1.5. The figure for SMTTPRCYVGCTVLRGRLYAIAGY is 2.29.

Turning to SMTTPRCYVGGTVLRGRLYAIAGY, the protein stability index was determined as 1.33. The figure for SMTTPRCYVGATVLRGRLRAIAGY is 1.77. As to SMTTPRCYVGATVLRGRLAAIAGY, the protein stability index stood at 1.65. Turning to SMTTPRCYVGATVLRGRLEAIAGY, the protein stability index was determined as 2.19. The figure for SMTTPRCYVGATVLRGRLGAIAGY is 2.81; for SMTTPRCYVGATVLRGRLMAIAGY it is 1.79.
